# Source: patent US20250145711A1 (Janssen / Centocor, published 2025)
# B1: BC3B129 (bispecific antibody, human IgG1, kappa, L234A L235A)
# chain: EIVLTQSPATLSASPGERVTLSCSASSSVSYMNWYQQKPGQAPRRWIYDSSKLASGVPARFSGSGSGRDYTLTISSLEPEDFAVYYCQQWSRNPPTFGGGTKVEIKGGSEGKSSGSGSESKSTGGSQVQLVQSGAEVKKPGSSVKVSCKASGYTFTRSTMHWVRQAPGQGLEWMGYINPSSAYTNYAQKFQGRVTLTADKSTSTAYMELSSLRSEDTAVYYCASPQVHYDYSGFPYWGQGTLVTVSSEPKSSDKTHTCPPCPAPEAAGGPSVFLFPPKPKDTLMISRTPEVTCVVVSVSHEDPEVKFNWYVDGVEVHNAKTKPREEQYNSTYRVVSVLTVLHQDWLNGKEYKCKVSNKALPAPIEKTISKAKGQPREPQVYVYPPSREEMTKNQVSLTCLVKGFYPSDIAVEWESNGQPENNYKTTPPVLDSDGSFALVSKLTVDKSRWQQGNVFSCSVMHEALHNHYTQKSLSLSPG
# heavy: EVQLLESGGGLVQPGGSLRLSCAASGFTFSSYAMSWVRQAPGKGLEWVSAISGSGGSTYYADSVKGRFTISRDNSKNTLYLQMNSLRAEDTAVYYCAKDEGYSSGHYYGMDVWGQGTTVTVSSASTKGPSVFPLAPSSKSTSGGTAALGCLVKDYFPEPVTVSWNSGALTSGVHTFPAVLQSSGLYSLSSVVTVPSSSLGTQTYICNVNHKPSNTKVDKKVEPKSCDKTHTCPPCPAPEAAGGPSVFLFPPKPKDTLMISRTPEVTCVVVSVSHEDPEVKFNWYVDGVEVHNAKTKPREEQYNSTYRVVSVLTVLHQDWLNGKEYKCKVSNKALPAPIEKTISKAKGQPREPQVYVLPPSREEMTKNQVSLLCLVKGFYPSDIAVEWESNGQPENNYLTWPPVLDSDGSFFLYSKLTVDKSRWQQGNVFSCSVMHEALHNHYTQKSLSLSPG
# light: EIVLTQSPGTLSLSPGERATLSCRASQSISSSFLTWYQQKPGQAPRLLIYGASSRATGIPDRFSGGGSGTDFTLTISRLEPEDFAVYYCQHYGSSPMYTFGQGTKLEIKRTVAAPSVFIFPPSDEQLKSGTASVVCLLNNFYPREAKVQWKVDNALQSGNSQESVTEQDSKDSTYSLSSTLTLSKADYEKHKVYACEVTHQGLSSPVTKSFNRGEC
# notes: IgG1 BCMAxCD3; HC1: CD3B2089-N106S LH scFv-Fc; also called BC3B129.001; B2089 LH NtoS
# B2: PSMB1052 (bispecific antibody)
# heavy: not shown
# light: not shown
# chain: SYELTQPPSVSVAPGQTARITCGGNNIGSKSVHWYQQKPGQAPVLVVYDDSDRPSGIPERFSGSNSGNTATLTISRVEAGDEADYYCQVWDSSTDHVVFGGGTKLTVLGGSEGKSSGSGSESKSTGGSEVQLVESGGGVVQPGRSLRLSCAASGFTFSSYGMNWVRQAPGKGLEWVAVTSYDGSNKYYADSVKGRFTISRDISKNTLYLQMSSLRAEDTAVYYCARDPYSSSWNGAFDIWGPGTMVTVSSEPKSSDKTHTCPPCPAPEAAGGPSVFLFPPKPKDTLMISRTPEVTCVVVSVSHEDPEVKFNWYVDGVEVHNAKTKPREEQYNSTYRVVSVLTVLHQDWLNGKEYKCKVSNKALPAPIEKTISKAKGQPREPQVYVLPPSREEMTKNQVSLLCLVKGFYPSDIAVEWESNGQPENNYLTWPPVLDSDGSFFLYSKLTVDKSRWQQGNVFSCSVMHEALHNHYTQKSLSLSPG
# notes: HC1 (ZWA): B23B62-Fab; LC2 is NA
# B3: PSMB1047 (bispecific antibody, human IgG1, kappa, L234A L235A)
# heavy: not shown
# light: not shown
# chain: QSVLTQPPSVSVAPGQTARITCGGNNSGSKSVHWYQQKPGQAPVLVVYDDSDRPSGIPERFSGSNSGNTATLTISRVEAGDEADYYCQVWDSSSDHGVFGGGTKLTVLGGSEGKSSGSGSESKSTGGSQVQLVESGGGEVQPGRSLRLSCAASGFSFSGYGMHWVRQAPGKGLEWVAVMSYDGSNRFYVDSVRGRFSISRDNSKNTLYLQMNSLRPEDTAVYYCARDTVWGSHPDAFDIWGQGTVVTVSSEPKSSDKTHTCPPCPAPEAAGGPSVFLFPPKPKDTLMISRTPEVTCVVVSVSHEDPEVKFNWYVDGVEVHNAKTKPREEQYNSTYRVVSVLTVLHQDWLNGKEYKCKVSNKALPAPIEKTISKAKGQPREPQVYVLPPSREEMTKNQVSLLCLVKGFYPSDIAVEWESNGQPENNYLTWPPVLDSDGSFFLYSKLTVDKSRWQQGNVFSCSVMHEALHNHYTQKSLSLSPG
# notes: as for B2
# B4: PSMB1060 (bispecific antibody, human IgG1, kappa, L234A L235A)
# heavy: not shown
# light: not shown
# chain: EIVLTQSPGTLSVSPGERATLSCRASQSVRSNLAWYQQKPGQAPRLLIYGASTRATGIPARFSGSGSGTEFTLTISSLQSEDFAVYYCHQYNDWPPYTFGQGTKLEIKGGSEGKSSGSGSESKSTGGSQVQLQESGGGVVQPGRSLRLSCAASGFTFSTYGMHWVRQAPGKGLEWVAFISYDGSNKYYADSVKGRFTISRDNSKHTLYLQMNSLRAEDTAVYYCAGRDNLRFLEWFMDVWGQGTTVTVSSEPKSSDKTHTCPPCPAPEAAGGPSVFLFPPKPKDTLMISRTPEVTCVVVSVSHEDPEVKFNWYVDGVEVHNAKTKPREEQYNSTYRVVSVLTVLHQDWLNGKEYKCKVSNKALPAPIEKTISKAKGQPREPQVYVLPPSREEMTKNQVSLLCLVKGFYPSDIAVEWESNGQPENNYLTWPPVLDSDGSFFLYSKLTVDKSRWQQGNVFSCSVMHEALHNHYTQKSLSLSPG
# notes: as for B2
# B5: PSMB1075 (bispecific antibody, human IgG1, kappa, L234A L235A)
# heavy: not shown
# light: not shown
# chain: EVQLVESGGGVVQPGRSLRLSCAASGFSFSGYGMHWVRQAPGKGLEWVAVISYDGSNKYYADSVKGRFTISRDNSKNTLYLQMNSLRVEDTAVYYCARDRIWGSRGYYYGMDVWGQGTTVTVSSGGSEGKSSGSGSESKSTGGSQSALTQPASVSGSPGQSITISCTGASSDVGGYNYVSWYQQHPGKAPKLMIYEVSNRPSGVSNRFSGSKSGNTASLTISGLQAEDEADYYCSSYTITSTLVFGGGTKLTVLEPKSSDKTHTCPPCPAPEAAGGPSVFLFPPKPKDTLMISRTPEVTCVVVSVSHEDPEVKFNWYVDGVEVHNAKTKPREEQYNSTYRVVSVLTVLHQDWLNGKEYKCKVSNKALPAPIEKTISKAKGQPREPQVYVLPPSREEMTKNQVSLLCLVKGFYPSDIAVEWESNGQPENNYLTWPPVLDSDGSFFLYSKLTVDKSRWQQGNVFSCSVMHEALHNHYTQKSLSLSPG
# notes: as for B2
# B6: GCDB131 (bispecific antibody, human IgG1, kappa, L234A L235A)
# heavy: QVQLLQSAAEVKKPGESLKISCKGSGYTFTRSTMHWVRQTPGKGLEWMGYINPSSAYTNYNQKFKDQVTISADKSISTAYLQWSSLKASDTAMYYCARPQVHYDYNGFPYWGQGTLVTVSSASTKGPSVFPLAPSSKSTSGGTAALGCLVKDYFPEPVTVSWNSGALTSGVHTFPAVLQSSGLYSLSSVVTVPSSSLGTQTYICNVNHKPSNTKVDKKVEPKSCDKTHTCPPCPAPEAAGGPSVFLFPPKPKDTLMISRTPEVTCVVVSVSHEDPEVKFNWYVDGVEVHNAKTKPREEQYNSTYRVVSVLTVLHQDWLNGKEYKCKVSNKALPAPIEKTISKAKGQPREPQVYVYPPSREEMTKNQVSLTCLVKGFYPSDIAVEWESNGQPENNYKTTPPVLDSDGSFALVSKLTVDKSRWQQGNVFSCSVMHEALHNHYTQKSLSLSPG
# light: EIVLTQSPSAMSASVGDRVTITCSASSSVSYMNWYQQKPGKVPKRLIYDSSKLASGVPSRFSGSGSGTEYTLTISSLQPEDFATYYCQQWSRNPPTFGQGTMLEIKRTVAAPSVFIFPPSDEQLKSGTASVVCLLNNFYPREAKVQWKVDNALQSGNSQESVTEQDSKDSTYSLSSTLTLSKADYEKHKVYACEVTHQGLSSPVTKSFNRGEC
# chain: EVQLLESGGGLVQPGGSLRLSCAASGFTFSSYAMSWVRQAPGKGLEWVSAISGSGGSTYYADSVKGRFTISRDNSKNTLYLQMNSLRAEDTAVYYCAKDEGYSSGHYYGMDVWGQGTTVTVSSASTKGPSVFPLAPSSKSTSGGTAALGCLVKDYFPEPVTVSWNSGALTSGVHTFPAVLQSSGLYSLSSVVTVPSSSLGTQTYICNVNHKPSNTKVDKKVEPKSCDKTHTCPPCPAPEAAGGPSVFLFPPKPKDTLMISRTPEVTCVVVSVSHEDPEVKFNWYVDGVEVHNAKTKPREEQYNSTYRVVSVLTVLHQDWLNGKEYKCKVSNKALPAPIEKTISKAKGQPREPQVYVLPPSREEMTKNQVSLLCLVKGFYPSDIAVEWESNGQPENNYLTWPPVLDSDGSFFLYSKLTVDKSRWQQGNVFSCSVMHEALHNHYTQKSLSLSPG
# B7: PSMB1069 (bispecific antibody, human IgG1, kappa, L234A L235A)
# heavy: not shown
# light: not shown
# chain: QVQLVESGGGEVQPGRSLRLSCAASGFSFSGYGMHWVRQAPGKGLEWVAVMSYDGSNRFYVDSVRGRFSISRDNSKNTLYLQMNSLRPEDTAVYYCARDTVWGSHPDAFDIWGQGTVVTVSSGGSEGKSSGSGSESKSTGGSQSVLTQPPSVSVAPGQTARITCGGNNSGSKSVHWYQQKPGQAPVLVVYDDSDRPSGIPERFSGSNSGNTATLTISRVEAGDEADYYCQVWDSSSDHGVFGGGTKLTVLEPKSSDKTHTCPPCPAPEAAGGPSVFLFPPKPKDTLMISRTPEVTCVVVSVSHEDPEVKFNWYVDGVEVHNAKTKPREEQYNSTYRVVSVLTVLHQDWLNGKEYKCKVSNKALPAPIEKTISKAKGQPREPQVYVLPPSREEMTKNQVSLLCLVKGFYPSDIAVEWESNGQPENNYLTWPPVLDSDGSFFLYSKLTVDKSRWQQGNVFSCSVMHEALHNHYTQKSLSLSPG
# notes: as for B2
# Assays:
# [1] = molecular target: T1, Human CD3 epsilon (CD3ε), on primary human pan T cells (human, UniProt P07766 23-207); assay: cell-based or functional assay
# [2] = molecular target: T1, Human CD3 epsilon (CD3ε), on primary …; assay: flow cytometry on human T cells, anti-human IgG Fc A647 detection
# Method: The bsAbs were assayed for their abilities bind T cells and to induce T-cell mediated cytotoxicity against H929 cells (ATCC@CRL-9068™). […] Stain buffer with no antibody was added to bottom 4 wells and assign as background control (secondary antibody alone). Parental Cris7b, CD3B695 (bivalent mAb controls) and CD3B375 (bsAb which was monovalent for Cris-7b) were added also with full dose-response curves.
# Frozen T-cells were thawed in a 37° C. water bath and transferred gently into conical tube containing warm 5 mL media (RPMI+10% FBS)/1 vial of 1×10⁶ cells. Cells were mixed and centrifuged for 5 minutes at 400×g followed by resuspension in flow staining buffer, and counted and viability checked. Cells were then plated in 50 uL/50,000 cells/well into assay plates. Assay positive control mAb was added in the first column in quadruplicates at 2× at 20 nM in the bottom 4 wells. Stain buffer with no mAb was added to the top 4 wells and assigned as background controls (secondary antibody alone). Serially diluted antibody samples were added at 50 uL/well using Intergra Viaflo according to the attached plate maps and incubated for 1 hr at 37° C. After one hour incubation, 150 uL staining buffer were added to all wells, and cells were spun at 500×g for 5 minutes to pellet cells. Cells were then washed prior to addition of Alexa Fluor 647 (A647) conjugated anti human IgG Fc specific secondary detection antibody at 2 ug/mL in staining buffer. Secondary detection antibody was added at 50 uL/well to the washed cells. Plates were covered with foil and incubated for 30 minutes on ice or in the fridge. 150 uL staining buffer were added to all wells, and cells were spun at 500×g for 5 min to pellet cells. Cells were resuspended in 20 uL running buffer containing 1:1000 dilution of SYTOX™ green dead cell stain and run plates on iQue® Screener flow cytometer (Essen BioScience, Inc.). Briefly, cells were gated on FCS vs. SCS dot plot to eliminate debris. Singlets were gated on SCS-A vs SCS-H dot plot and from singlet population, live cells gated choosing BL1 channel for low/negative with SYTOX™ green viability stain (Thermo Fisher).
# [3] = molecular target: T2, human PSMA on prostate cancer cell lines (22RV1, C4-2B) (human, UniProt Q04609 1-750); assay: flow cytometry on C4-2B cells, four-parameter fit
# T2 construct: also called PSMA-expressing cell lines
# Method: Molecule concentrations ranged from 500-0 nM over 12-points at 3-fold dilution. […] Values reported in the Table 69 were generated by fitting the data to a four-parameter function for ligand binding generating values for y-min, y-max, EC50, and Hill. EC90 were calculated using the equation EC90=[…]\hat{ }(1/Hill)*EC50.
# [4] = molecular target: T3, recombinant human PSMA (human, UniProt Q04609 44-750); assay: SPR (Biacore 8K), antibody captured on anti-Fc, PSMA in solution
# T3 construct: also called hu PSMA; prostate-specific membrane antigen
# Method: The antibodies were captured on a goat anti-Fc antibody-modified C1 chip and titrated with 3-fold serial dilutions of PSMA antigen spanning concentrations of 1 nM to 100 nM human PSMA. The association and dissociation were monitored for 3 and 30 minutes, respectively, using a flow rate of 50 μL/min. Raw binding data was referenced by subtracting the analyte binding signals from blanks and analyzed using a 1:1 Langmuir binding model by the Biacore Insight evaluation software to obtain the kinetics which were used to calculate the binding affinity. The anti-PSMA were captured using an anti-human Fc antibody and the antigens were injected in solution.
# [5] = molecular target: T1, Human CD3 epsilon (CD3ε), on primary …; assay: cell-based or functional assay; remark: listed apart in the source
# T1 sequence (P07766 23-207 limits assumed): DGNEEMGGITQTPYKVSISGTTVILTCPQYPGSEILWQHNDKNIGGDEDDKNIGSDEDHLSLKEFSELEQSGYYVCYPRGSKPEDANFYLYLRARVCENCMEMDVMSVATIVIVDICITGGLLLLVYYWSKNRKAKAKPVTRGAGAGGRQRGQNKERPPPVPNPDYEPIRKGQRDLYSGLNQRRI
# T2 sequence (Q04609 whole entry): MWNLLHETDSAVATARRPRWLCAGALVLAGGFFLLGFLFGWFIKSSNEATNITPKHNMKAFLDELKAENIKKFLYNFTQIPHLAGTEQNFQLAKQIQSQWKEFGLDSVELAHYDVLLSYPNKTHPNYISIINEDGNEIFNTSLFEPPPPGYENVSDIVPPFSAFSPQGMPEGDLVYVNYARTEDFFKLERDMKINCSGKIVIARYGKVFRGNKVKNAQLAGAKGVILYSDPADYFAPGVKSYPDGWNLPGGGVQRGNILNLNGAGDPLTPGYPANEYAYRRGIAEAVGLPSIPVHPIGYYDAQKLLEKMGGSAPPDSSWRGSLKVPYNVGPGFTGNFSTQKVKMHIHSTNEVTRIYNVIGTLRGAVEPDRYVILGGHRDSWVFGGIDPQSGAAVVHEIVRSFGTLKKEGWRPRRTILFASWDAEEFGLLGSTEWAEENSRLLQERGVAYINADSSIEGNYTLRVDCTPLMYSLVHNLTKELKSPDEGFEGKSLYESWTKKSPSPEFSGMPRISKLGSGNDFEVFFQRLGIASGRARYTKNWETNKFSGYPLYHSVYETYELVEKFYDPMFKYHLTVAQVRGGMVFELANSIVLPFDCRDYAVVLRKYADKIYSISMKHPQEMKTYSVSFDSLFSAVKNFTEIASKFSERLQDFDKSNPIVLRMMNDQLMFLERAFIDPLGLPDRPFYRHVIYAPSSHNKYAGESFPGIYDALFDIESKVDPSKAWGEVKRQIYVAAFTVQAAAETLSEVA
# T3 sequence (Q04609 44-750 limits assumed): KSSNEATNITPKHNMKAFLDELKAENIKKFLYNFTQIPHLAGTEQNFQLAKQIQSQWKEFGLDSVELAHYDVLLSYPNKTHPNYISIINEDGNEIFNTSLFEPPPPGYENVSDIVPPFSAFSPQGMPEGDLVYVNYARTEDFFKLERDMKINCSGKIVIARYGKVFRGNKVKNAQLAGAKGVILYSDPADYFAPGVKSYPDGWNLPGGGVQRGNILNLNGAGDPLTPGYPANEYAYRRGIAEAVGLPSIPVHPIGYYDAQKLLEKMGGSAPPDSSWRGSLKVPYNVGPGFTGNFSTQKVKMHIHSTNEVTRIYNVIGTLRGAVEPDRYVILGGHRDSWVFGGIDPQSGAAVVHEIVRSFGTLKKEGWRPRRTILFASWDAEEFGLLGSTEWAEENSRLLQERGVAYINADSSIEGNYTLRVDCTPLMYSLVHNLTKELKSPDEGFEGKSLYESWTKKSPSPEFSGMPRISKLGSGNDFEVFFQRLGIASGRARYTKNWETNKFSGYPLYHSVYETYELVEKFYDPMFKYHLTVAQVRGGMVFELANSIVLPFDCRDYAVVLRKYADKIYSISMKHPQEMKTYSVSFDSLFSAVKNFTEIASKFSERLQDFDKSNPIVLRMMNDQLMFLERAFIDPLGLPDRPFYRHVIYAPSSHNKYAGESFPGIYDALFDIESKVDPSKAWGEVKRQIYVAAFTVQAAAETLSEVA
Binder,H929 Killing EC50 [1],EC50 [2],EC50 [3],EC90 [3],Y-max [3],Y-min [3],Kd [4],koff [4],kon [4],"EC50, Cytotoxicity [5]"
B1,10 nM,300 nM,,,,,,,,
B2,,,13 nM,100 nM,1.5e+06,68000,1.61 nM,0.000315 s⁻¹,196000 M⁻¹ s⁻¹,
B3,,,22 nM,71 nM,1.6e+06,79000,2.52 nM,0.00175 s⁻¹,694000 M⁻¹ s⁻¹,
B4,,,11 nM,59 nM,1.6e+06,86000,1.02 nM,0.000119 s⁻¹,117000 M⁻¹ s⁻¹,
B5,,,30 nM,156 nM,1.3e+06,66000,0.936 nM,0.000492 s⁻¹,526000 M⁻¹ s⁻¹,
B6,,,,,,,,,,0.0334 nM
B7,,,44 nM,254 nM,3.3e+06,87000,1.42 nM,0.000197 s⁻¹,139000 M⁻¹ s⁻¹,
